{
  "source": "IntAct's records for PubMed 16785445",
  "parents": {"B1": {"name": "Interferon-induced, double-stranded RNA-activated protein kinase (Homo sapiens), P19525 (parent)", "chain": "MAGDLSAGFFMEELNTYRQKQGVVLKYQELPNSGPPHDRRFTFQVIIDGREFPEGEGRSKKEAKNAAAKLAVEILNKEKKAVSPLLLTTTNSSEGLSMGNYIGLINRIAQKKRLTVNYEQCASGVHGPEGFHYKCKMGQKEYSIGTGSTKQEAKQLAAKLAYLQILSEETSVKSDYLSSGSFATTCESQSNSLVTSTLASESSSEGDFSADTSEINSNSDSLNSSSLLMNGLRNNQRKAKRSLAPRFDLPDMKETKYTVDKRFGMDFKEIELIGSGGFGQVFKAKHRIDGKTYVIKRVKYNNEKAEREVKALAKLDHVNIVHYNGCWDGFDYDPETSDDSLESSDYDPENSKNSSRSKTKCLFIQMEFCDKGTLEQWIEKRRGEKLDKVLALELFEQITKGVDYIHSKKLIHRDLKPSNIFLVDTKQVKIGDFGLVTSLKNDGKRTRSKGTLRYMSPEQISSQDYGKEVDLYALGLILAELLHVCDTAFETSKFFTDLRDGIISDIFDKKEKTLLQKLLSKKPEDRPNTSEILRTLTVWKKSPEKNERHTC", "partner": "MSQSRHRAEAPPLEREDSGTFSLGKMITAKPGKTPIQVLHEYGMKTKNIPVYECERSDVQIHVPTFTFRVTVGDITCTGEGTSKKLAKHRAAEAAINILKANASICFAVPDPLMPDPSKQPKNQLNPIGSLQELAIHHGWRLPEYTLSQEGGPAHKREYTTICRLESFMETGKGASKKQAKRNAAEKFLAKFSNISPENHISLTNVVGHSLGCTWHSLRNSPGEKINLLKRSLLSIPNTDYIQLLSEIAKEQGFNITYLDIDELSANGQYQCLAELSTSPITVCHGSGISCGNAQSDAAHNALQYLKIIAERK"}},
  "data": [
    {"variants_of": "B1", "conditions": "with PRKRA", "values": [
      {"variant": "G329A", "effect of a mutation on the interaction": "disrupting interaction strength"},
      {"variant": "D328A", "effect of a mutation on the interaction": "disrupting interaction strength"},
      {"variant": "D333A", "effect of a mutation on the interaction": "disrupting interaction strength"},
      {"variant": "D331A", "effect of a mutation on the interaction": "disrupting interaction strength"},
      {"variant": "Y332A", "effect of a mutation on the interaction": "disrupting interaction strength"}
    ]}
  ]
}
